Experimental data published in patent publication WO2009138494A2 (dated 2009).

B1: 132-F7 (VHH)
VHH: EVQLVESGGGLVQAGGSLRLSCAASGNTFSFNVMGWYRQAPGKQRELVTIIDNGGTTNYADSVKGRFTISRDNAKNTVYLQMNSLKPEDTARYYCHARRGGTLYILGDSNYWGQGTQVTVSS
notes: not shown: C-terminal c-myc tag and (His)6 tag coded by the vector
B2: 132-F12 (VHH)
VHH: EVQLVESGGGLVQAGGSLRLSCAASGNTFSFNVMGWYRQAPGNQRELVTIIDNSGTTNYADSVKGRFTVSRDNAKNTVYLQMNSLKPEDTARYYCHARRGGGLYILGESNYWGQGTQVTVSS
notes: as for B1
B3: 132-G9 (VHH)
VHH: EVQLVESGGGLVQTGGSLRLSCAASGNTFNFNVMGWYRQAPGKQRELVTIIDNSGTTNYADSVKGRFTISRDNAKNTVYLQMNSLKPEDTARYFCHARRGGSLYTLGDSNYWGQGTQVTVSS
notes: as for B1
B4: 132-E10 (VHH)
VHH: EVQLVESGGGLVQAGGSLRLSCAASGNTFSINVMGWYRQAPGKQRELVTIIDNGGTTSYADSVKGRFTISRDNAKNTVYLQMNSLKPEDTARYTCHARRGGTLYTLGDSNYWGQGTQVTVSS
notes: as for B1
B5: 132-B8 (VHH)
VHH: AVQLVESGGGLVQAGGSLRLSCAASGNTFSINVMGWYRQAPGKQRDLVTIIDDGGTTNYADSVKGRFTISRDNAKNTVYLQMNSLKPEDTARYFCHARRGGNAYTLGESNYWGQGTQVTVSS
notes: as for B1
B6: 132-B12 (VHH)
VHH: EVQLVESGGGLVQAGGSLRLSCAASGNTFSINVMGWYRQAPGKQRELVTIMDDSGTTNYAGSVKGRFTISRDNAKNTVYLQMSSLKPEDTARYFCHARRGGTAYTLGDSNYWGQGTQVTVSS
notes: as for B1
B7: 132-A12 (VHH)
VHH: EVQLVESGGGLVQAGGSLRLSCAASGRNFRRNSMGWYRLTSGKQREMVARISNGGTTVYADSVKGRFTISRDNAKNTVYLQMNSLKFEDTAVYYCNAGDYTDSMYWGQGTQVTVSS
notes: as for B1
B8: 133-F8 (VHH)
VHH: EVQLVESGGGLVQPGGSLRLSCAASGSIFSINDMGWFRQAPGKEREHVALIRFKDGSIYYADSVKGRFTISRDNAKSTVYLQMNSLKPEDTAVYYCAAKTGTSFVYWGQGTQVTVSS
notes: as for B1
B9: 133-F12 (VHH)
VHH: EVQLVESGGGLVQPGGSLRLSCAASGSIFSINDMGWFRQAPGKEREHVALIRFKDGSIYYADSVKGRFTISRDNAKNTVYLQMNSLKPEDTAVYYCAAKTGTSFVCWGQGTQVTVSS
notes: as for B1
B10: 132-B5 (VHH)
VHH: EVQLVESGGGLVQAGGSLRLSCVASGLVSSYYGMGWFRQAPGKEREFVASVNWSGKDTYYGDSVKGRFAVSRDSGKNTGFLQMNSLKSEDTAVYYCARRRGGGTGTGNPSEYDYWGQGTQVTVSS
notes: as for B1
B11: 132-G5 (VHH)
VHH: EVQLVESGGGLVQPGGSLRLSCAASGSILSIHYMGWFRQAPGKQRELVAGIPTGGTTNYADSVKGRFTMSRDNAKNTVDLQMNTMKPEDTAVYYCNAWISSERESRWLNYWGQGTQVTVSS
notes: as for B1
B12: 132-B3 (VHH)
VHH: EVQLVESGGGLVQAGGSLRLSCVASGSPFSIGATGWYRQAPGKQRDLVAEIYPSGDTIYADSVKGRSTISRDNAKNTVYLQMNSLKPEDTAVYFCNVVRWGVDYWGQGTQVTVSS
notes: as for B1
B13: 132-E5 (VHH)
VHH: EVQLVESGGGLVQAGGSLRLSCVVSGSSFSVGAAGWYRQAPGKQRDLVAEIYPSGSTSYADSVKGRFTISRDNAKNIMYLQMNALKLEDTAVYYCNVVRWGVDYWGQGTQVTVSS
notes: as for B1
B14: 132-D1 (VHH)
VHH: EVQLVESGGGLVQAGGSLRLSCVASGTSFSIGAAGWYRQAPGKQRDLLAEIYPSGSTIYADSVKGRFTISRDNAKNTVYLQMNALKPEDTAVYYCNAVRWGVDYWGQGTQVTVSS
notes: as for B1
B15: 132-H4 (VHH)
VHH: EVQLVESGGGLVQAGGSLRLSCVASGTSIMVGAMGWYRQAPGKQRDLVAEIYPSGSTIYEDSVKGRFTISRDNAKNTVYLQMNSLKPEDTAVYYCNVLRWGVDYWGQGTQVTVSS
notes: as for B1
B16: 132-B1 (VHH)
VHH: EVQLVESGGGLVQAGGSLRLSCVASGSPFSIGATGWYRQAPGKQRDLVAEIYPSGDTIYADSVKGRSTISRDNAKNTVYLQMNSMKPEDTAVYFCNVVRWGVDYWGQGTQVTVSS
notes: as for B1
B17: 132-D3 (VHH)
VHH: VQLVESGGGLVQAGGSLRLSCVASGTSFSVGAAGWYRQAPGKQRDLVAEIYPSGSTIYADSVKGRFTISRDNAKNTVYLQMNALKPEDTAVYYCNVVRWGVDYWGQGTQVTVSS
notes: as for B1

Target: T1, recombinant human TLR3, R&D Systems cat no: 1487-TR (human, UniProt O15455 27-700, limits assumed)
T1 construct: Bought protein, coated on ELISA plates; also called hTLR3
Assay: ELISA: TLR coated at 2 ug/ml, periplasmic extract of the clone, anti-VHH detection, OD against no-Nanobody control

Binding result, binds:
B1
B2
B3
B4
B5
B6
B7

Target: T2, recombinant human TLR4/MD2 (rhTLR4/MD2), R&D Systems cat no: 3146-TM/CF (human, UniProt O00206 24-631; Q9Y6Y9 17-160, limits assumed)
T2 construct: Bought protein, coated on ELISA plates
T2 sequence (O00206 24-631 limits assumed, chain 1 of 2): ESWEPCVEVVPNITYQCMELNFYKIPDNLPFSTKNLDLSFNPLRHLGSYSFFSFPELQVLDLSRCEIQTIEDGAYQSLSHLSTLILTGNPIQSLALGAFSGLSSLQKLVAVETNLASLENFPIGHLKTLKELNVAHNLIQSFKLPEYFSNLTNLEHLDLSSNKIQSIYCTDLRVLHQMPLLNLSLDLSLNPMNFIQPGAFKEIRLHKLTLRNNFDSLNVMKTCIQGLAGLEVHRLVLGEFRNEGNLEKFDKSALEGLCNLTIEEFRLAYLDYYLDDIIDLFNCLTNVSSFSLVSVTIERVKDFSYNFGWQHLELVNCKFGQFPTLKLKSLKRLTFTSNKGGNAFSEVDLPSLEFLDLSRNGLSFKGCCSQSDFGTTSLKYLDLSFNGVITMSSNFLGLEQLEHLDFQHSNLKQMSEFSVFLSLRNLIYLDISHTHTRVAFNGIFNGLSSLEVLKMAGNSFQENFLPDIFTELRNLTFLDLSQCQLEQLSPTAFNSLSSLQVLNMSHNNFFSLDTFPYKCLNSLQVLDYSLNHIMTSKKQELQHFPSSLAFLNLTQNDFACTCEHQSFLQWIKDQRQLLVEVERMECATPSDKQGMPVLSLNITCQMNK
T2 sequence (Q9Y6Y9 17-160 limits assumed, chain 2 of 2): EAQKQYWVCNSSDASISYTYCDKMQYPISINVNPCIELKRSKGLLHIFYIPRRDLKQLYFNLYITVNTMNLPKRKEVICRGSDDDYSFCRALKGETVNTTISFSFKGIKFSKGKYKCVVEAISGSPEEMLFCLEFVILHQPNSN
Assay: as above

Binding result, binds:
B8
B9

Target: T3, recombinant murine TLR3, R&D Systems cat no: 3005-TR (murine, UniProt Q99MB1 26-705, limits assumed)
T3 construct: Bought protein, coated on ELISA plates; also called mTLR3
T3 sequence (Q99MB1 26-705 limits assumed): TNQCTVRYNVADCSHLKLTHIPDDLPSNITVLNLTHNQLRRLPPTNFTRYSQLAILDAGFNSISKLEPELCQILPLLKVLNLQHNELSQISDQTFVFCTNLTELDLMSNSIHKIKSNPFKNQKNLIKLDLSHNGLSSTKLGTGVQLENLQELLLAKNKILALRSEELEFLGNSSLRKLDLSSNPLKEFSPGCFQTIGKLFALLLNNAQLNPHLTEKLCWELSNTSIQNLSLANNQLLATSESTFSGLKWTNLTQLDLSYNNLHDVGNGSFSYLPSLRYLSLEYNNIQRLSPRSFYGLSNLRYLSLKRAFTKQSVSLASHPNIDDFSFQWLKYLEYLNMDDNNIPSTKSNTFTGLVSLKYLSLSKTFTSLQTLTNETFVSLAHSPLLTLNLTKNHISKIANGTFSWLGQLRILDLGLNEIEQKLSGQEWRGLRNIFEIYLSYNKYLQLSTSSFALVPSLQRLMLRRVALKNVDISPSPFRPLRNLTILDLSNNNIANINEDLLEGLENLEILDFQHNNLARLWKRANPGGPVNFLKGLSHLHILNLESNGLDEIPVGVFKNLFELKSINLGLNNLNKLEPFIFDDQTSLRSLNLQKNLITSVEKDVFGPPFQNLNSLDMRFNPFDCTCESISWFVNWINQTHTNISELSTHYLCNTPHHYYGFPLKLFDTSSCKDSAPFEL
Assay: as above

Binding result, binds:
B10
B11
B12
B13
B14
B15
B16
B17
